Source: US20040005688A1

Legend:
[1] = target: Dsh, C-terminally tagged, expressed from pcDNA3.1 in NIH3T3 cells (Drosophila) (UniProt P51140); test: cell-based or functional assay
[2] = target: Dvl3, mouse homolog of Dsh, C-terminally tagged, expressed from pcDNA3.1 in NIH3T3 cells (mouse) (UniProt Q61062); test: cell-based or functional assay
Chain of Dvl3, mouse homolog of Dsh, C-terminally tagged, expressed from pcDNA3.1 in NIH3T3 cells (mouse) (Q61062 whole entry): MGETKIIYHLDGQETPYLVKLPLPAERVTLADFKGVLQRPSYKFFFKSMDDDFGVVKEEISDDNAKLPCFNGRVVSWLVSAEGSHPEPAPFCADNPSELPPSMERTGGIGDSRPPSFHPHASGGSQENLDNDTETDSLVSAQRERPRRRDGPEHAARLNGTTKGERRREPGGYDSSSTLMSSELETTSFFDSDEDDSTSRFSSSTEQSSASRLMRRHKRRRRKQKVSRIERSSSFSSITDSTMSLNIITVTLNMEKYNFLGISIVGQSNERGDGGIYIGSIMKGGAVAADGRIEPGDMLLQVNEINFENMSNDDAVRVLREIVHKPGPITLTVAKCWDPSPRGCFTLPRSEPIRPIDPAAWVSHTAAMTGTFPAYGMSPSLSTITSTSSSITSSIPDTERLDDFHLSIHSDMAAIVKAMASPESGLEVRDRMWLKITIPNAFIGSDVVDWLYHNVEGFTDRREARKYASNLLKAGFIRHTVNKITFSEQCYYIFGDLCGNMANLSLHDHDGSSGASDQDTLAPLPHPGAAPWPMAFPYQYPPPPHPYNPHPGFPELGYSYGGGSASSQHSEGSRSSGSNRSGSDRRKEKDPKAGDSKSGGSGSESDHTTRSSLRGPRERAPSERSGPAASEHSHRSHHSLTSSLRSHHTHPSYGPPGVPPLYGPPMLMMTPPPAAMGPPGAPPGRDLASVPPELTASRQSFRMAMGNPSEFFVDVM

Chain of Dsh, C-terminally tagged, expressed from pcDNA3.1 in NIH3T3 cells (Drosophila) (P51140 whole entry D276N): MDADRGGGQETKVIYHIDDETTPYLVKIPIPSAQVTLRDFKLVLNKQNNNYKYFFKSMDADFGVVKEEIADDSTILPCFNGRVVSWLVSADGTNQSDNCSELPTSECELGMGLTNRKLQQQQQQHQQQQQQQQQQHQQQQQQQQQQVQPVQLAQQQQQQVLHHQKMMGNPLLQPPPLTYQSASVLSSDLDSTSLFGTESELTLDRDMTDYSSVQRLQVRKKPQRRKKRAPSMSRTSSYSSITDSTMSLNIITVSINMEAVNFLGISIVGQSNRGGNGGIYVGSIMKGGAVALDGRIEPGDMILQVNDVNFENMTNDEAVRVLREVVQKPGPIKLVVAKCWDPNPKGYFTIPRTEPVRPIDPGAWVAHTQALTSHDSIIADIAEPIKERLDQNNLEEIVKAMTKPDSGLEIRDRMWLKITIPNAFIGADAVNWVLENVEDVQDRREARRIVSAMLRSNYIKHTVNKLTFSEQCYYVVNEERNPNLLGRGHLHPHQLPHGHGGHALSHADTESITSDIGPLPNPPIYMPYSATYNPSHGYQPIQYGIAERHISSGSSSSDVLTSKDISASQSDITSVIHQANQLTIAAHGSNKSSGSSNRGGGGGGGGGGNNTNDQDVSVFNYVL

DAKa, wild type, C-terminally tagged, expressed from pcDNA3.1 in NIH3T3 cells (enzyme)
activation of the LEF1 reporter (luciferase, NIH3T3 cells) [1]: 10 fold
activation of the LEF1 reporter (luciferase, NIH3T3 cells) [2]: 95 fold
